# Patent publication US20240301086A1 (APTEVO RESEARCH AND DEVELOPMENT, published 2024)
# B1: PSMA01108 Anti-PSMA scFv x Fc x linker x Anti CD3 scFv; Anti PSMA scFv x Fc (bispecific antibody)
# chain 1: QVQLVQSGAEVKKPGASVKVSCKASGYTFTDYYMHWVRQAPGQGLEWMGYFNPYNDYTRYAQKFQGRVTMTRDTSTSTVYMELSSLRSEDTAVYYCARSDGYYDAMDYWGQGTTVTVSSGGGGSGGGGSGGGGSGGGGSDIQMTQSPSSLSASVGDRVTITCRASKSISKYLAWYQQKPGKAPKLLIHSGSSLESGVPSRFSGSGSGTEFTLTISSLQPDDFATYYCQQHIEYPWTFGQGTKVEIKEPKSSDKTHTCPPCPAPPAAAPSVFLFPPKPKDTLMISRTPEVTCVVVDVSHEDPEVKFNWYVDGVEVHNAKTKPREEQYNSTYRVVSVLTVLHQDWLNGKEYKCAVSNKALPAPIEKTISKAKGQPREPQVYTLPPSRDELTKNQVSLWCLVKGFYPSDIAVEWESNGQPENNYKTTPPVLDSDGSFFLYSKLTVDKSRWQQGNVFSCSVMHEALHNHYTQKSLSLSPGGGGSPSDIQMTQSPSSLSASVGDRVTITCRASSSVSYMNWYQQKPGKAPKRWIYDSSKLASGVPSRFSGSGSGTDFTLTISSLQPEDFATYYCQQWSRNPPTFGQGTKVEIKGGGGSGGGGSGGGGSGGGGSQVQLVQSGAEVKKPGASVKVSCKASGYTFTRSTMHWVRQAPGQGLEWIGYINPSSAYTNYAQKFQGRVTLTADKSTSTAYMELSSLRSEDTAVYYCASPQVHYDYNGFPYWGQGTLVTVSS
# chain 2: QVQLVQSGAEVKKPGASVKVSCKASGYTFTDYYMHWVRQAPGQGLEWMGYFNPYNDYTRYAQKFQGRVTMTRDTSTSTVYMELSSLRSEDTAVYYCARSDGYYDAMDYWGQGTTVTVSSGGGGSGGGGSGGGGSGGGGSDIQMTQSPSSLSASVGDRVTITCRASKSISKYLAWYQQKPGKAPKLLIHSGSSLESGVPSRFSGSGSGTEFTLTISSLQPDDFATYYCQQHIEYPWTFGQGTKVEIKEPKSSDKTHTCPPCPAPPAAAPSVFLFPPKPKDTLMISRTPEVTCVVVDVSHEDPEVKFNWYVDGVEVHNAKTKPREEQYNSTYRVVSVLTVLHQDWLNGKEYKCAVSNKALPAPIEKTISKAKGQPREPQVYTLPPSRDELTKNQVSLSCAVKGFYPSDIAVEWESNGQPENNYKTTPPVLDSDGSFFLVSKLTVDKSRWQQGNVFSCSVMHEALHNHYTQKSLSLSPG
# notes: also called PSMA1108; PSAM01108
# Key:
# [1] = biological target: human Fcγ receptor I (human, UniProt P12314 16-288); test: SPR (Biacore T200), construct amine-coupled, Fcγ receptor as analyte
# Description: (§1) The Fc region incorporated into anti-PSMA bispecific constructs contained mutations intended to reduce or abolish binding to common human and cynomolgus Fc gamma receptors. SPR experiments were conducted at 25° C. in HBS-EP+ with 0.2% BSA buffer on a Biacore T200 system to evaluate the impact of these mutations on binding. For these experiments, three flow cells of a CM5 sensor chip were immobilized with anti-PSMA bispecifics by standard amine coupling to a response level of ˜2000 RU. A blank immobilization was performed on flow cell #1 for purposes of background signal subtraction. Both human and cynomolgus monkey Fcγ receptors (purchased from R&D Systems) were diluted in HBS-EP+ with 0.2% BSA to 4-6 μM and then flowed as analytes at 30 μL/min for 120 seconds followed by a 240 second dissociation step. No regeneration step was required. Blank-subtracted sensorgrams were visually inspected for binding to each of the Fcγ receptor proteins. […] Attenuated binding to Fcγ receptors IIA (both polymorphic variants) and IIB/C was observed. PSMA01107 and PSMA01108 share the same Fc amino acid sequence and therefore equivalent Fcγ receptor binding behavior was expected.
# [2] = biological target: human Fcγ receptor IIIA, V176 variant (human, UniProt P08637 17-208); test: as above
# Description: as §1
# [3] = biological target: human Fcγ receptor IIIA, F176 variant (human, UniProt P08637 17-208); test: as above
# Description: as §1
# [4] = biological target: human Fcγ receptor IIIB (human, UniProt O75015 17-200); test: as above
# Description: as §1
# [5] = biological target: T1, cynomolgus Fcγ receptor III (cynomolgus monkey, UniProt Q8SPW2 17-208); test: SPR (Biacore T200), construct amine-coupled, soluble cyno Fcγ receptor as analyte
# T1 construct: Called recombinant, soluble; also called Cyno RIII
# Description: as §1
# [6] = biological target: T2, Full-length Human PSMA (TSC435), on cells (human, UniProt Q04609 1-750); test: flow cytometry on C4-2B cells, PE goat anti-human IgG Fc secondary, MFI (median)
# T2 construct: also called CHOK1SV/huPSMA; PSMA on C4-2B, 22RV1, LNCaP, MDA-PCa-2b cells
# Description: (§2) Constructs were initially tested in CD3ε and PSMA binding assays on Jurkat and C4-2B cells. Cells were labelled at approximately 100,000 cells per well, in 96-well plates, with serial dilutions of bispecific constructs ranging in concentration from of 0.1 to 300 nM, for 30 min on ice. Primary label was followed by washes and incubation with PE-labeled minimum cross species reactive secondary antibody, goat anti-human IgG Fcγ, F(ab′)2 (Jackson Laboratory) for 30 minutes on ice. Washes and incubation were done in staining buffer (PBS with 0.2% BSA and 2 mM EDTA). Cells were collected using an BD™ LSRII or a BD FACSymphony™ flow cytometer (BD Biosciences) and analyzed by FlowJo flow cytometry analysis software. Median fluorescence intensity (MFI) of bound molecules on cells was determined after exclusion of doublets. Results were plotted and nonlinear regression analysis to determine EC50 values was performed using GraphPad Prism 7© graphing and statistics software.
# [7] = biological target: T2, Full-length Human PSMA (TSC435), on …; test: as above; remark: listed apart in the source
# Description: as §2
# [8] = biological target: T3, human CD3ε in the TCR/CD3 complex on Jurkat cells (human, UniProt P07766 23-207); test: flow cytometry on Jurkat cells, PE goat anti-human IgG Fc secondary, MFI (median)
# T3 construct: whole, on cells; On the cells it stands in the whole TCR/CD3 complex; also called CD3 (+) cells; CD3-expressing Jurkat cells
# Description: as §2
# [9] = biological target: T3, human CD3ε in the TCR/CD3 complex on …; test: as above; remark: listed apart in the source
# Description: as §2
# [10] = biological target: T3, human CD3ε in the TCR/CD3 complex on …; test: flow cytometry, drawn table 'On- Cell Binding Parameters', row 'Human CD3 binding affinity'
# Description: as §2
# [11] = biological target: T2, Full-length Human PSMA (TSC435), on …; test: flow cytometry, drawn table 'On- Cell Binding Parameters', row 'Human PSMA binding affinity'
# [12] = biological target: T4, Full-length cynomolgus monkey PSMA (TSC308), on cells (cynomolgus monkey, UniProt Q04609 1-750 (human entry)); test: flow cytometry on CHO-CynoPSMA cells, Median (PE); drawn table row 'Cyno PSMA binding affinity'
# T4 construct: also called cyno PSMA; CHOK1SV/cynoPSMA
# T4 chain: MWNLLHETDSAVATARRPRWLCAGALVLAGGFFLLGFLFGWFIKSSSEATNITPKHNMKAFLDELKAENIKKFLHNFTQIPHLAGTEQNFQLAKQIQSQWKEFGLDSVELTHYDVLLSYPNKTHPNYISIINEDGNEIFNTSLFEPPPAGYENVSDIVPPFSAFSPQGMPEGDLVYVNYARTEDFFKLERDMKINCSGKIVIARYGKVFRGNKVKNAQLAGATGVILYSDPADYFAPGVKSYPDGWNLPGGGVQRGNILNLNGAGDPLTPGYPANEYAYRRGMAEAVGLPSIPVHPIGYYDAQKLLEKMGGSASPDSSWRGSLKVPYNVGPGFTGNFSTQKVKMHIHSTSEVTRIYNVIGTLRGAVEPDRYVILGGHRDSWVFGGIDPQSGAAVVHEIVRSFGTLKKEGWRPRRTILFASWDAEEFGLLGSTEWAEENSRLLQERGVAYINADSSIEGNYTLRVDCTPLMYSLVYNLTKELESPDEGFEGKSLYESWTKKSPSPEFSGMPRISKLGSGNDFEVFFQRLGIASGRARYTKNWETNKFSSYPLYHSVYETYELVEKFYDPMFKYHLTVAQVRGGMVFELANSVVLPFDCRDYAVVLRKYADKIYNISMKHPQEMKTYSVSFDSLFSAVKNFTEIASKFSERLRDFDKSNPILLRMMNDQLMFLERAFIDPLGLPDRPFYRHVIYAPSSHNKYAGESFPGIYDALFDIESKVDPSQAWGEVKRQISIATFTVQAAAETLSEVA
# T3 sequence (P07766 23-207, one chain of several): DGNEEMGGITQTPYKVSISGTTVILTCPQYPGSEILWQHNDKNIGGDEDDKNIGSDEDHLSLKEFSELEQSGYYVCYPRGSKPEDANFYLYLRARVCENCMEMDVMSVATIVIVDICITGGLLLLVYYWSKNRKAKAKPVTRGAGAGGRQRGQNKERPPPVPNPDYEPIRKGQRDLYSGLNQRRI
# human Fcγ receptor I, sequence (P12314 16-288): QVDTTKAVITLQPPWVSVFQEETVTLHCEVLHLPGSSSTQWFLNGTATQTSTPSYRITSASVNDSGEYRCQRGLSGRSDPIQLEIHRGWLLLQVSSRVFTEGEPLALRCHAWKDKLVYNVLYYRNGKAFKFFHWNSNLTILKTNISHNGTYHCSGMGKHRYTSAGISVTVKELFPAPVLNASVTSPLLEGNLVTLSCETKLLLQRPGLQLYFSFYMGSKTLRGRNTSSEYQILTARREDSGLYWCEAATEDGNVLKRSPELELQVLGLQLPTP
# human Fcγ receptor IIIA, V176 variant, sequence (P08637 other isoform, or with tags, fused parts or gaps mutant): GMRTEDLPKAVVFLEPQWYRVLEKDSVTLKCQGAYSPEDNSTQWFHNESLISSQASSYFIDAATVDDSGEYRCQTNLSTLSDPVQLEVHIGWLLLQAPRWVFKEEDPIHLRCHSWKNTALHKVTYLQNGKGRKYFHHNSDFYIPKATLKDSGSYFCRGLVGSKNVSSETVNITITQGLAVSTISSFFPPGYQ
# T1 sequence (Q8SPW2 17-208): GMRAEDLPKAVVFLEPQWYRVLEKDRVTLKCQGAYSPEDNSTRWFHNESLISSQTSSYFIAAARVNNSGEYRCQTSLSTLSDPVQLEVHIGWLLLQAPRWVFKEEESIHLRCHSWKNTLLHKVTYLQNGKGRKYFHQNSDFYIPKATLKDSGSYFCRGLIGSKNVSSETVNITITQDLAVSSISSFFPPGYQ
# human Fcγ receptor IIIB, sequence (O75015 17-200): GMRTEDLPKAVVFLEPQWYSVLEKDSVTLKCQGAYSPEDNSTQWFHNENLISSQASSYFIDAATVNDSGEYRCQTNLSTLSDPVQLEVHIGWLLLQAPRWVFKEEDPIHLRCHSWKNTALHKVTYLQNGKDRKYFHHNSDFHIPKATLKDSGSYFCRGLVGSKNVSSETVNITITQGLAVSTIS
# human Fcγ receptor IIIA, F176 variant, sequence (P08637 17-208, change not shown): as the sequence (P08637 other isoform, or with tags, fused parts or gaps mutant) above, with V160F counted along it
binder,measurement,setting,value
B1,binding result,[1],no binding (tested: 4-6 µM)
same,binding result,[2],no binding (tested: 4-6 µM)
same,binding result,[3],no binding (tested: 4-6 µM)
same,binding result,[4],no binding (tested: 4-6 µM)
same,binding result,[5],no binding (tested: 4-6 µM)
same,EC50,[6],1 nM
same,EC50,[7],1 nM
same,EC50,[8],> 210 nM
same,EC50,[9],> 200 nM
same,EC50,[10],> 200 nM
same,Max,[10],409
same,EC50,[11],1 nM
same,Max,[11],2500
same,EC50,[12],4 nM
same,Max,[12],19500
